Experimental data reported in US20220251236A1 (Boehringer Ingelheim, published 2022).

Key:
[1] = biological target: T1, human DLL3 (endogenous, on SCLC cell lines NCI-H82 and SHP77 and in SCLC tissue) (human, UniProt Q9NYJ7 27-618); experiment: cell-based or functional assay
T1 sequence (looked up): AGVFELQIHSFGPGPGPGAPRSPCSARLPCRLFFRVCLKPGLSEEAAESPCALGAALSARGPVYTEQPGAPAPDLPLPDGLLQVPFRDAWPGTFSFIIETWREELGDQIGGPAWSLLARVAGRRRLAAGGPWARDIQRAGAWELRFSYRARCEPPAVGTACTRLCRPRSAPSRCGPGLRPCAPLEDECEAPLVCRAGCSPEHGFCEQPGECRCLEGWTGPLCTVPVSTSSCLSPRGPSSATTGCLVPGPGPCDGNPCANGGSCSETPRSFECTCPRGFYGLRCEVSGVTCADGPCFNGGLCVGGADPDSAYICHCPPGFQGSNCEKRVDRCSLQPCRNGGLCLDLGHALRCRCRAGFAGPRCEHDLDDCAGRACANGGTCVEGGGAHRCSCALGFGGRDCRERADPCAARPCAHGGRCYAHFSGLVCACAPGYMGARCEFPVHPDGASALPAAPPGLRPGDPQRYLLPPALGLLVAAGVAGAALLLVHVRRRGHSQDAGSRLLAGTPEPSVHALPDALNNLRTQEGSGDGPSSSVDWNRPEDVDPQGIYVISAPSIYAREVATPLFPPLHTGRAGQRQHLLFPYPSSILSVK

[2] = biological target: T1, human DLL3 (endogenous, on SCLC cell …); experiment: cell-based or functional assay; remark: listed apart in the source
[3] = biological target: T1, human DLL3 (endogenous, on SCLC cell …); experiment: flow cytometry titration on NCI-H82 cells, PE anti-human secondary, x-fold over background
Text: Cells (T cells or human SCLC cells) were stained with increasing concentrations of two-step purified DLL3/CD3 binding proteins with increasing concentrations in FACS buffer (PBS/0.5% BSA/0.05% sodium azide). Bound molecules were detected with PE-conjugated anti-human secondary antibody (Sigma-Aldrich, #P8047).

B1: DLL3#2/CD3#1 (bispecific antibody, human IgG1, kappa, lambda, L234A L235A)
chain 1: DIQMTQSPSAMSASVGDRVTITCRASQGISNYLAWFQQKPGKVPEPLIYAASSLQSGVPSRFSGSGSVTEFTLTISSLQPEDFATYYCLQHNSSPYTFGQGTKLEIKRTVAAPSVFIFPPSDEQLKSGTASVVCLLNNFYPREAKVQWKVDNALQSGNSQESVTEQDSKDSTYSLSSTLTLSKADYEKHKVYACEVTHQGLSSPVTKSFNRGECGGGGSEGKSSGSGSESKSTEGKSSGSGSESKSTGGGGSQVQLVQSGAEVKKPGASVKVSCKASGYTFTSYYMHWVRQAPGQGLEWMGIINPSGGSTSYAQKFQGRVTMTRDTSTSTVYMELSSLRSEDTAVYYCARGEAVGGNYYYYGMDVWGQGTTVTVSSASTKGPSVFPLAPSSKSTSGGTAALGCLVKDYFPEPVTVSWNSGALTSGVHTFPAVLQSSGLYSLSSVVTVPSSSLGTQTYICNVNHKPSNTKVDKRVEPKSCDKTHTCPPCPAPEAAGGPSVFLFPPKPKDTLMISRTPEVTCVVVDVSHEDPEVKFNWYVDGVEVHNAKTKPREEQYNSTYRVVSVLTVLHQDWLNGKEYKCKVSNKALPAPIEKTISKAKGQPREPQVYTLPPSREEMTKNQVSLWCLVKGFYPSDIAVEWESNGQPENNYKTTPPVLDSDGSFFLYSKLTVDKSRWQQGNVFSCSVMHEALHNHYTQKSLSLSPG
chain 2: EAVVTQEPSLTVSPGGTVTLTCRSSTGAVTTSNYANWVQEKPGQLPRGLIGGTNKRAPWVPARFSGSLLGGKAALTLSGAQPEDEAEYFCALWYSNLWVFGGGTKLTVLGQPKAAPSVTLFPPSSEELQANKATLVCLISDFYPGAVKVAWKADGSPVNTGVETTTPSKQSNNKYAASSYLSLTPEQWKSHRSYSCQVTHEGSTVEKTVAPAECSGGGGSEGKSSGSGSESKSTEGKSSGSGSESKSTGGGGSEVQLVESGGGLVQPGGSLKLSCAASGFTFNTYAMNWVRQAPGKGLEWVARIRSKYNNYATYYADSVKDRFTISRDDSKNTAYLQMNNLKTEDTAVYYCVRHGNFGNSYVSWFAYWGQGTLVTVSAASTKGPSVFPLAPSSKSTSGGTAALGCLVKDYFPEPVTVSWNSGALTSGVHTFPAVLQSSGLYSLSSVVTVPSSSLGTQTYICNVNHKPSNTKVDKRVEPKSCDKTHTCPPCPAPEAAGGPSVFLFPPKPKDTLMISRTPEVTCVVVDVSHEDPEVKFNWYVDGVEVHNAKTKPREEQYNSTYRVVSVLTVLHQDWLNGKEYKCKVSNKALPAPIEKTISKAKGQPREPQVYTLPPSREEMTKNQVSLSCAVKGFYPSDIAVEWESNGQPENNYKTTPPVLDSDGSFFLVSKLTVDKSRWQQGNVFSCSVMHEALHNRFTQKSLSLSPG
notes: Heterodimer of one DLL3 chain and one CD3 chain (scFab-Fc, knob-in-hole)
[1]
  EC90, 72 hour cytotoxicity assay (LDH release), non-stimulated PBMCs as effector cells, NCI-H82 target cells: 2.9 nM
  EC90, 72 hour cytotoxicity assay (LDH release), non-stimulated PBMCs as effector cells, SHP77 target cells: 3.4 nM
[2]
  EC90, 72 hour cytotoxicity assay, purified T cells as effector cells, NCI-H82 target cells: 1.51 nM
  EC90, 72 hour cytotoxicity assay, purified T cells as effector cells, SHP77 target cells: 0.16 nM

B2: DLL3#4/CD3#1 (bispecific antibody, human IgG1, kappa, lambda, L234A L235A)
chain 1: not shown
chain 2: EAVVTQEPSLTVSPGGTVTLTCRSSTGAVTTSNYANWVQEKPGQLPRGLIGGTNKRAPWVPARFSGSLLGGKAALTLSGAQPEDEAEYFCALWYSNLWVFGGGTKLTVLGQPKAAPSVTLFPPSSEELQANKATLVCLISDFYPGAVKVAWKADGSPVNTGVETTTPSKQSNNKYAASSYLSLTPEQWKSHRSYSCQVTHEGSTVEKTVAPAECSGGGGSEGKSSGSGSESKSTEGKSSGSGSESKSTGGGGSEVQLVESGGGLVQPGGSLKLSCAASGFTFNTYAMNWVRQAPGKGLEWVARIRSKYNNYATYYADSVKDRFTISRDDSKNTAYLQMNNLKTEDTAVYYCVRHGNFGNSYVSWFAYWGQGTLVTVSAASTKGPSVFPLAPSSKSTSGGTAALGCLVKDYFPEPVTVSWNSGALTSGVHTFPAVLQSSGLYSLSSVVTVPSSSLGTQTYICNVNHKPSNTKVDKRVEPKSCDKTHTCPPCPAPEAAGGPSVFLFPPKPKDTLMISRTPEVTCVVVDVSHEDPEVKFNWYVDGVEVHNAKTKPREEQYNSTYRVVSVLTVLHQDWLNGKEYKCKVSNKALPAPIEKTISKAKGQPREPQVYTLPPSREEMTKNQVSLSCAVKGFYPSDIAVEWESNGQPENNYKTTPPVLDSDGSFFLVSKLTVDKSRWQQGNVFSCSVMHEALHNRFTQKSLSLSPG
notes: as for B1
[3]
  EC50 (read off the curve): ~1 nM

B3: DLL3#17/CD3#1 (bispecific antibody, human IgG1, kappa, lambda, L234A L235A)
chain 1: DIQMTQSPASLAASVGETVTITCRASENIYYSLAWYQQKQGKSPQLLIYNTNSLEDGVPSRFSGSGSGTQYSMKINSMQPEDTATYFCKQAYDFPLTFGAGTKLELKRTVAAPSVFIFPPSDEQLKSGTASVVCLLNNFYPREAKVQWKVDNALQSGNSQESVTEQDSKDSTYSLSSTLTLSKADYEKHKVYACEVTHQGLSSPVTKSFNRGECGGGGSEGKSSGSGSESKSTEGKSSGSGSESKSTGGGGSQIQLQQSGPEVVKPGASVKISCKASGYTFISYYIHWVKQRPGQGLEWIGWIYPGDGSTNNNEKFKGKTTLTADKSSSTAYMLLSSLTSEDSAVYFCARGEGNAMDDWGQGTSVTVSSASTKGPSVFPLAPSSKSTSGGTAALGCLVKDYFPEPVTVSWNSGALTSGVHTFPAVLQSSGLYSLSSVVTVPSSSLGTQTYICNVNHKPSNTKVDKRVEPKSCDKTHTCPPCPAPEAAGGPSVFLFPPKPKDTLMISRTPEVTCVVVDVSHEDPEVKFNWYVDGVEVHNAKTKPREEQYNSTYRVVSVLTVLHQDWLNGKEYKCKVSNKALPAPIEKTISKAKGQPREPQVYTLPPSREEMTKNQVSLWCLVKGFYPSDIAVEWESNGQPENNYKTTPPVLDSDGSFFLYSKLTVDKSRWQQGNVFSCSVMHEALHNHYTQKSLSLSPG
chain 2: EAVVTQEPSLTVSPGGTVTLTCRSSTGAVTTSNYANWVQEKPGQLPRGLIGGTNKRAPWVPARFSGSLLGGKAALTLSGAQPEDEAEYFCALWYSNLWVFGGGTKLTVLGQPKAAPSVTLFPPSSEELQANKATLVCLISDFYPGAVKVAWKADGSPVNTGVETTTPSKQSNNKYAASSYLSLTPEQWKSHRSYSCQVTHEGSTVEKTVAPAECSGGGGSEGKSSGSGSESKSTEGKSSGSGSESKSTGGGGSEVQLVESGGGLVQPGGSLKLSCAASGFTFNTYAMNWVRQAPGKGLEWVARIRSKYNNYATYYADSVKDRFTISRDDSKNTAYLQMNNLKTEDTAVYYCVRHGNFGNSYVSWFAYWGQGTLVTVSAASTKGPSVFPLAPSSKSTSGGTAALGCLVKDYFPEPVTVSWNSGALTSGVHTFPAVLQSSGLYSLSSVVTVPSSSLGTQTYICNVNHKPSNTKVDKRVEPKSCDKTHTCPPCPAPEAAGGPSVFLFPPKPKDTLMISRTPEVTCVVVDVSHEDPEVKFNWYVDGVEVHNAKTKPREEQYNSTYRVVSVLTVLHQDWLNGKEYKCKVSNKALPAPIEKTISKAKGQPREPQVYTLPPSREEMTKNQVSLSCAVKGFYPSDIAVEWESNGQPENNYKTTPPVLDSDGSFFLVSKLTVDKSRWQQGNVFSCSVMHEALHNRFTQKSLSLSPG
notes: as for B1
[3]
  EC50 (read off the curve): ~1 nM

B4: DLL3#5/CD3#1 (bispecific antibody, human IgG1, kappa, lambda, L234A L235A)
chain 1: not shown
chain 2: EAVVTQEPSLTVSPGGTVTLTCRSSTGAVTTSNYANWVQEKPGQLPRGLIGGTNKRAPWVPARFSGSLLGGKAALTLSGAQPEDEAEYFCALWYSNLWVFGGGTKLTVLGQPKAAPSVTLFPPSSEELQANKATLVCLISDFYPGAVKVAWKADGSPVNTGVETTTPSKQSNNKYAASSYLSLTPEQWKSHRSYSCQVTHEGSTVEKTVAPAECSGGGGSEGKSSGSGSESKSTEGKSSGSGSESKSTGGGGSEVQLVESGGGLVQPGGSLKLSCAASGFTFNTYAMNWVRQAPGKGLEWVARIRSKYNNYATYYADSVKDRFTISRDDSKNTAYLQMNNLKTEDTAVYYCVRHGNFGNSYVSWFAYWGQGTLVTVSAASTKGPSVFPLAPSSKSTSGGTAALGCLVKDYFPEPVTVSWNSGALTSGVHTFPAVLQSSGLYSLSSVVTVPSSSLGTQTYICNVNHKPSNTKVDKRVEPKSCDKTHTCPPCPAPEAAGGPSVFLFPPKPKDTLMISRTPEVTCVVVDVSHEDPEVKFNWYVDGVEVHNAKTKPREEQYNSTYRVVSVLTVLHQDWLNGKEYKCKVSNKALPAPIEKTISKAKGQPREPQVYTLPPSREEMTKNQVSLSCAVKGFYPSDIAVEWESNGQPENNYKTTPPVLDSDGSFFLVSKLTVDKSRWQQGNVFSCSVMHEALHNRFTQKSLSLSPG
notes: as for B1
[3]
  EC50 (read off the curve): ~5 nM
